Experimental data as given in IntAct's records for PubMed 31515488.

B1: Transcription factor 12 (Homo sapiens), Q99081-3 (parent)
chain: MNPQQQRMAAIGTDKELSDLLDFSAMFSPPVNSGKTRPTTLGSSQFSGSGIDERGGTTSWGTSGQPSPSYDSSRGFTDSPHYSDHLNDSRLGAHEGLSPTPFMNSNLMGKTSERGSFSLYSRDTGLPGCQSSLLRQDLGLGSPAQLSSSGKPGTAYYSFSATSSRRRPLHDSAALDPLQAKKVRKVPPGLPSSVYAPSPNSDDFNRESPSYPSPKPPTSMFASTFFMQDGTHNSSDLWSSSNGMSQPGFGGILGTSTSHMSQSSSYGNLHSHDRLSYPPHSVSPTDINTSLPPMSSFHRGSTSSSPYVAASHTPPINGSDSILGTRGNAAGSSQTGDALGKALASIYSPDHTSSSFPSNPSTPVGSPSPLTGTSQWPRPGGQAPSSPSYENSLHSLKNRVEQQLHEHLQDAMSFLKDVCEQSRMEDRLDRLDDAIHVLRNHAVGPSTSLPAGHSDIHSLLGPSHNAPIGSLNSNYGGSSLVASSRSASMVGTHREDSVSLNGNHSVLSSTVTTSSTDLNHKTQENYRGGLQSQSGTVVTTEIKTENKEKDENLHEPPSSDDMKSDDESSQKDIKVSSRGRTSSTNEDEDLNPEQKIEREKERRMANNARERLRVRDINEAFKELGRMCQLHLKSEKPQTKLLILHQAVAVILSLEQQVRERNLNPKAACLKRREEEKVSAVSAEPPTTLPGTHPGLSETTNPMGHM

Variants of: B1
Conditions: with cdn2c_human CDKN2C

Effect of a mutation on the interaction, with no effect:
Y120C
A482V
S446F
R74G
A155T
N606H

Variants of: B1
Conditions: with psa1_human PSMA1, P25786
psa1_human PSMA1, P25786, sequence (P25786 whole entry): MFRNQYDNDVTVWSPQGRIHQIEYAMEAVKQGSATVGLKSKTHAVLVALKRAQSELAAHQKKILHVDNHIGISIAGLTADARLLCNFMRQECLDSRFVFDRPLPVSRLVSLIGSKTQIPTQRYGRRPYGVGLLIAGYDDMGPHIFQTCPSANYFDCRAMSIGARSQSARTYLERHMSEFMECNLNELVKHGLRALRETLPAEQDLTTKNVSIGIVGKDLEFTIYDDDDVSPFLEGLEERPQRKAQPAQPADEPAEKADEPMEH

Effect of a mutation on the interaction, with no effect:
Y120C
A482V
S446F
R74G
A155T
N606H
